# Measurements as given in patent publication US20200324099A1, “ACOUSTIC WAVE MEDIATED NON-INVASIVE DRUG DELIVERY” (Mupharma Pty Ltd, priority 2016, published 2020).
# Where a name gives a salt, the structure may show the parent alone. Read-outs that look alike come from different tables or passages of the source.
# How the values were obtained:
# [1] = SAW (30 MHz) perfusion of FITC-Albumin and Fluorescein in pig lip tissue (Example Three); assay type: in vitro ADME; settings: for perfusion into pig lip tissue with SAW: SAW 30 MHz, different exposure times and powers; for passive diffusion into pig lip tissue (control sample): no SAW
# Text: In this set of experiments, the effect of surface acoustic wave (SAW) at 30 MHz on FITC-Albumin and Fluorescein perfusion for different SAW powers and operating time was investigated.
# Fluorescein sodium salt and FITC-Albumin were purchased from Sigma-Aldrich, Australia. Fresh porcine lips were obtained from diamond valley pork abattoir (Laverton, Melbourne) prior to the experiments. Surface acoustic wave (SAW) chip patterning of Chromium and Aluminum interdigital transducers (IDT) were fabricated using standard lithographic techniques at Micro Nano Research Facility (MNRF), RMIT University.
# The lips were wrapped in sterile gauze saturated in Krebs buffer during transportation to maintain the viability of the tissues. […] The porcine lips were exposed to various molecules with and without the surface acoustic waves (SAW). The lips were washed immediately after the experiments to get rid of any reminent targeting molecules.
# Samples were wrapped in aluminium foil and stored at −80 degree until dermatomed. The tissues were dermatomed in a cryostat at a thickness of 50-micron layer until 1 mm for extensive penetration studies.
# Tissue sectioning was performed at RMIT Bundoora and Melbourne University campuses. Fluorescent images of the samples were obtained using optical microscope (×10 lens), consistent light exposure of 600 ms. Acquired images were then quantified using ImageJ software to calculate the normalized pixel intensity of the green channel.
# The model drug (FITC-albumin and fluorescein) used was placed directly on the device throughout the experiments. Fresh lips were approximately dissected into a 1 cm*1 cm cube and was placed on the drug. No coupling agent or loading substrate was used to transmit the vibrations from device into tissues. The inter-digital electrodes (IDTs) patterned on the lithium niobate (piezoelectric substrate) generated surface waves (SAW), which in turn drives the model drugs into the tissues. (FIG. 12)
# [2] = rat, in vivo
# Description: All experiments were conducted in accordance with the ARVO Statement for Use of Animals in Ophthalmic and Vision Research and with approval from the ANU Animal Experimentation Ethics Committee (Ethics ID: A2014/56). Adult Wistar rats were utilised in all experiments, which were born and reared under normal lighting conditions (˜5 lux light) and aged between 90 and 120 post-natal days at the time of use. Wistar rats were anaesthetised with an intraperitoneal injection of ketamine (100 mg/kg; Troy Laboratories, NSW, Australia) and Xylazil (12 mg/kg; Troy Laboratories). Once anaesthetised, Systane eye drops (Alcon, TX, USA) were applied every 2 minutes to maintain corneal lubrication. Animals were placed on a heat blanket to maintain body temperature at 37° C. and a cotton eye loop was applied around the eye to expose the anterior surface.
# The inventors' HFB device (with A.A Lab Systems A-301 HS HV amplifier and RIGOL DG4062 Function/Arbitrary Waveform Generator) was loaded with 0.2% Riboflavin-5-phosphate-sodium (Riboflavin-5-phosphate-sodium-5-phosphate sodium #30-1598-25GM; PCCA, TX, USA), made up in sterile saline (0.9% NaCl), and applied to the centre of the cornea for 5 minutes. The settings on the device were as follows: transducer—1.6 MHz; amplifier—DC offset=off position; waveform generator—60 KHz sine waveform. The device was run for 5 minutes at 0, 3, 11 or 13 voltage peak to peak (VPP). […] Therefore, an electric circuit between the device and the eye tissue was not created.
# Following delivery, the residual Riboflavin-5-phosphate-sodium was washed from the eye with normal saline. The animal was euthanized, the eyes removed and the eyes fixed in 4% paraformaldehyde for 5 minutes before being cryopreserved and immediately sectioned at 16 μm thickness.
# Sections were visualised under a Nikon A1 confocal microscope using the green 488 channel and imaged using the 10× objective. Data analysis for quantification was performed with an n=3 with 8 regions per section, with the gain of the laser set to optimal fluorescence for the brightest section (gain setting 110) and maintained for all imaging.
# [3] = for SAW samples pixel intensity: SAW approximately 4V; for SAW samples pixel intensity / Control samples pixel intensity: 5 s exposure, 30 μg/ml; for Control samples pixel intensity: no acoustic waves (0 mV)
# Description: The SAW device 10 illustrated in FIG. 1 was used to controllably deliver albumin-fluorescein isothiocyanate (FITC-albumin) across epithelial membranes of pig lips. Fresh lips tissues from pigs were obtained from a slaughterhouse. The experiments were conducted within 2 hours after the animals were sacrificed. The porcine lips were exposed to FITC-albumin molecules with and without the acoustic waves. The exposure time was 5 s for both control and SAW experiments. The power or voltage was maintained at 0 mV (no voltage) for control, and approximately 4V for SAW experiments. The concentration and the amount of FITC-Albumin (30 μg/ml) used was maintained constant throughout the penetration depth study.
# The fresh tissues were further snap frozen in isopentane chilled by liquid nitrogen with the aid of optimal cutting temperature compound (OCT) as the embedding medium. Samples were further wrapped in aluminium foil and stored at −80° C. until sectioned by a dermatome. The tissues were sectioned by a dermatome in a cryostat to create samples of contiguous layers of tissue of 50 μm thickness.
# Fluorescent images of the samples were obtained and quantified using Image J software to calculate the normalised pixel intensity of the green channel.
compound,measurement,setting,value
"O=C1OC2(c3ccc(O)cc3Oc3cc(O)ccc32)c2ccccc21 [Fluorescein, Fluorescein sodium salt]",perfusion into pig lip tissue with SAW,[1],"showed an improvement, especially for longer exposure time"
same,passive diffusion into pig lip tissue (control sample),[1],prevalent
Cc1cc2nc3c(=O)[nH]c(=O)nc-3n(C[C@H](O)[C@H](O)[C@H](O)COP(=O)([O-])O)c2cc1C.[Na+] [Riboflavin-5-phosphate-sodium],"concentrations in posterior iris, ciliary body and choroid",[2],significant concentrations
same,delivery to the posterior segment of the eye,[2],concentrated in the uveal tract
same,fluorescence in anterior chamber and vitreous,[2],did not show any fluorescence
same,"increase in average relative fluorescence intensity (RFI), treated versus control cornea",[2],~4 times
albumin-fluorescein isothiocyanate [FITC-albumin],depth of delivery across the epithelial layers of the pig lips,"[3]; SAW device, 5 s, tissue deeper than 500 μm not examined",500 μm
same,diffusion through the layers of the pig lips,"[3]; control, no acoustic waves, 5 s",diffused evenly and uniformly through the layers of the pig lips
same,SAW samples pixel intensity,[3]; layer 100 μm,37.192
same,Control samples pixel intensity,[3]; layer 100 μm,7.52
same,SAW samples pixel intensity,[3]; layer 150 μm,19.733
same,Control samples pixel intensity,[3]; layer 150 μm,7.421
same,SAW samples pixel intensity,[3]; layer 200 μm,19.835
same,Control samples pixel intensity,[3]; layer 200 μm,6.617
same,SAW samples pixel intensity,[3]; layer 250 μm,14.041
same,Control samples pixel intensity,[3]; layer 250 μm,6.126
same,SAW samples pixel intensity,[3]; layer 300 μm,11.229
same,Control samples pixel intensity,[3]; layer 300 μm,7.488
same,SAW samples pixel intensity,[3]; layer 350 μm,16.047
same,Control samples pixel intensity,[3]; layer 350 μm,7.405
same,SAW samples pixel intensity,[3]; layer 400 μm,12.274
same,Control samples pixel intensity,[3]; layer 400 μm,7.589
same,SAW samples pixel intensity,[3]; layer 450 μm,9.935
same,Control samples pixel intensity,[3]; layer 450 μm,6.886
same,SAW samples pixel intensity,[3]; layer 500 μm,9.958
same,Control samples pixel intensity,[3]; layer 500 μm,7.715
same,perfusion into pig lip tissue with SAW,[1],outstanding perfusion compared to passive diffusion
same,passive diffusion into pig lip tissue (control sample),[1],hardly any diffusion
